What was measured:
[1] = system: T1, RspWYL1 (WP_046441785.1, Ruminococcus sp. N15.MGS-57 WYL1 accessory protein)
T1 sequence: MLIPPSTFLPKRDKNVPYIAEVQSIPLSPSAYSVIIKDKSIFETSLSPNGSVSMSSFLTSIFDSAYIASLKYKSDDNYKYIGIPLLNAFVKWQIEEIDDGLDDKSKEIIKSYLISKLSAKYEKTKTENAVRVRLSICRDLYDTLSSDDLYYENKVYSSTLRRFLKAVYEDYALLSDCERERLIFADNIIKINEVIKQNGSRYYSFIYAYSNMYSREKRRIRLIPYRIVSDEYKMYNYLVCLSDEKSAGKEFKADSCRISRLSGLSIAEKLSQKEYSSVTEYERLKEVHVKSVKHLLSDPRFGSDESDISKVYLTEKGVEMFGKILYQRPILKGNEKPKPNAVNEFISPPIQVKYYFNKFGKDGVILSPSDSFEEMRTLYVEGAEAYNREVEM

[2] = molecular target: T2, RspWYL1 (WP_046441785.1, Ruminococcus sp. N15.MGS-57 WYL1 accessory protein)
T2 chain: T1 sequence

Bergeyella zoohelcum Cas13b (BzCas13b)
in vitro ssRNA cleavage activity (denaturing gel) [1]: RspWYL1 enhanced the activity of BzCas13b

B1: EsCas13d (WP_005358205.1, Eubacterium siraeum DSM 15702 Type VI-D CRISPR-Cas effector) (protein)
chain: MGKKIHARDLREQRKTDRTEKFADQNKKREAERAVPKKDAAVSVKSVSSVSSKKDNVTKSMAKAAGVKSVFAVGNTVYMTSFGRGNDAVLEQKIVDTSHEPLNIDDPAYQLNVVTMNGYSVTGHRGETVSAVTDNPLRRFNGRKKDEPEQSVPTDMLCLKPTLEKKFFGKEFDDNIHIQLIYNILDIEKILAVYSTNAIYALNNMSADENIENSDFFMKRTTDETFDDFEKKKESTNSREKADFDAFEKFIGNYRLAYFADAFYVNKKNPKGKAKNVLREDKELYSVLTLIGKLRHWCVHSEEGRAEFWLYKLDELKDDFKNVLDVVYNRPVEEINNRFIENNKVNIQILGSVYKNTDIAELVRSYYEFLITKKYKNMGFSIKKLRESMLEGKGYADKEYDSVRNKLYQMTDFILYTGYINEDSDRADDLVNTLRSSLKEDDKTTVYCKEADYLWKKYRESIREVADALDGDNIKKLSKSNIEIQEDKLRKCFISYADSVSEFTKLIYLLTRFLSGKEINDLVTTLINKFDNIRSFLEIMDELGLDRTFTAEYSFFEGSTKYLAELVELNSFVKSCSFDINAKRTMYRDALDILGIESDKTEEDIEKMIDNILQIDANGDKKLKKNNGLRNFIASNVIDSNRFKYLVRYGNPKKIRETAKCKPAVRFVLNEIPDAQIERYYEACCPKNTALCSANKRREKLADMIAEIKFENFSDAGNYQKANVTSRTSEAEIKRKNQAIIRLYLTVMYIMLKNLVNVNARYVIAFHCVERDTKLYAESGLEVGNIEKNKTNLTMAVMGVKLENGIIKTEFDKSFAENAANRYLRNARWYKLILDNLKKSERAVVNEFRNTVCHLNAIRNININIKEIKEVENYFALYHYLIQKHLENRFADKKVERDTGDFISKLEEHKTYCKDFVKAYCTPFGYNLVRYKNLTIDGLFDKNYPGKDDSDEQK
targeted and collateral ssRNA nuclease activities (in vitro ssRNA cleavage assay, denaturing gel) [2]: RspWYL1 enhanced the targeted and collateral ssRNA nuclease activities of EsCas13d to a similar extent as observed for RspCas13d

B2: RspCas13d (WP_046441786.1, Ruminococcus sp. N15.MGS-57 Type VI-D CRISPR-Cas effector) (protein)
chain: MAKKNKMKPRELREAQKKARQLKAAEINNNAAPAIAAMPAAEVIAPVAEKKKSSVKAAGMKSILVSKNKMYITSFGKGNSAVLEYEVDNNDYNQTQLSSKGSSNIELRGVNEVNITFSSKHGFESGVEINTSNPTHRSGESSPVRGDMLGLKSELEKRFFGKTFDDNIHIQLIYNILDIEKILAVYVTNIVYALNNMLSIKDSESYDDFMGYLSARNTYEVFTHPDKSNLSDKAKGNIKKSFSTFNDLLKTKRLGYFGLEEPKTKDTRVSQAYKKRVYHMLAIVGQIRQSVFHDKSSKLDEDLYSFIDIIDSEYRETLDYLVDERFDSINKGFIQGNKVNISLLIDMMKGYEADDIIRLYYDFIVLKSQKNLGFSIKKLREKMLDEYGFRFKDKQYDSVRSKMYKLMDFLLFCNYYRNDVVAGEALVRKLRFSMTDDEKEGIYADEASKLWGKFRNDFENIADHMNGDVIKELGKADMDFDEKILDSEKKNASDLLYFSKMIYMLTYFLDGKEINDLLTTLISKFDNIKEFLKIMKSSAVDVECELTAGYKLFNDSQRITNELFIVKNIASMRKPASSAKLTMFRDALTILGIDDNITDDRISEILKLKEKGKGIHGLRNFITNNVIESSRFVYLIKYANAQKIRKVAKNEKVVMFVLGGIPDTQIERYYKSCVEFPDMNSSLEVKRSELARMIKNISFDDFKNVKQQAKGRENVAKERAKAVIGLYLTVMYLLVKNLVNVNARYVIAIHCLERDFGLYKEIIPELASKNLKNDYRILSQTLCELCDKSPNLFLKKNERLRKCVEVDINNADSSMTRKYRNCIAHLTVVRELKEYIGDIRTVDSYFSIYHYVMQRCITKRENDTKQEEKIKYEDDLLKNHGYTKDFVKALNSPFGYNIPRFKNLSIEQLFDRNEYLTEK
targeted and collateral ssRNA cleavage activity (in vitro ssRNA cleavage assay, denaturing gel) [2]: RspWYL1 increases both the targeted and collateral ssRNA cleavage activity of RspCas13d in a dose-dependent manner, with a molar excess of RspWYL1 yielding the greatest increase in Cas13d activity

From patent US20190002889
